Experiments:
[1] = molecular target: Grb2 SH2 (UniProt P62993); test: SH2 binding enrichment of the phosphorylated peptide, bacterial display (enrichment ratio); higher = better substrate or ligand; peptides without Tyr show the background
[2] = molecular target: c-Src SH2; test: as above
[3] = molecular target: SHP2-C SH2; test: as above
[4] = molecular target: Fes (UniProt P07332); test: phosphorylation enrichment, bacterial display (enrichment ratio); higher = better substrate or ligand; peptides without Tyr show the background
Sequence of Fes (P07332 whole entry, looked up): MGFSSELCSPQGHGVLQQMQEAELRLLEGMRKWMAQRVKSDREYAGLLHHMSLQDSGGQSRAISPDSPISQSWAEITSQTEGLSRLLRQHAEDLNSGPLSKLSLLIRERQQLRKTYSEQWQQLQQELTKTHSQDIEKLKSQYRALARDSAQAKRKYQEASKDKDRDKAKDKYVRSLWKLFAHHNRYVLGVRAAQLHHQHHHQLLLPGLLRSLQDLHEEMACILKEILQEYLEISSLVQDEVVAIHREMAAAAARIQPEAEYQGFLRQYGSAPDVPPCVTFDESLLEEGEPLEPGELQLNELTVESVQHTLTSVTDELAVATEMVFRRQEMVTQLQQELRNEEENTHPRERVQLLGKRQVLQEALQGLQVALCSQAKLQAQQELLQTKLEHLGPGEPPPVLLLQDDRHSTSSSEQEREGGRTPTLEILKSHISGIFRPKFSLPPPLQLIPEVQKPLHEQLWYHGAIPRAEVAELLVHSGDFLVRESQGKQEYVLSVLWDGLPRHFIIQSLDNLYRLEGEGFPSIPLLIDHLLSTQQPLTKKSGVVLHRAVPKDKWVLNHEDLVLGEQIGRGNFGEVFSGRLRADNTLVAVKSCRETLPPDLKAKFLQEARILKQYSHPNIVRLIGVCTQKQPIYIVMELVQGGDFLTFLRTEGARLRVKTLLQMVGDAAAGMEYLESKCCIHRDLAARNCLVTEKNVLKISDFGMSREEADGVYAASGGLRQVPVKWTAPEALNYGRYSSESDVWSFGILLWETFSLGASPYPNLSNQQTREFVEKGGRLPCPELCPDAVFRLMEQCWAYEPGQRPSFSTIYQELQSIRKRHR

[5] = molecular target: Hck (UniProt P08631); test: as above
Sequence of Hck (P08631 whole entry, looked up): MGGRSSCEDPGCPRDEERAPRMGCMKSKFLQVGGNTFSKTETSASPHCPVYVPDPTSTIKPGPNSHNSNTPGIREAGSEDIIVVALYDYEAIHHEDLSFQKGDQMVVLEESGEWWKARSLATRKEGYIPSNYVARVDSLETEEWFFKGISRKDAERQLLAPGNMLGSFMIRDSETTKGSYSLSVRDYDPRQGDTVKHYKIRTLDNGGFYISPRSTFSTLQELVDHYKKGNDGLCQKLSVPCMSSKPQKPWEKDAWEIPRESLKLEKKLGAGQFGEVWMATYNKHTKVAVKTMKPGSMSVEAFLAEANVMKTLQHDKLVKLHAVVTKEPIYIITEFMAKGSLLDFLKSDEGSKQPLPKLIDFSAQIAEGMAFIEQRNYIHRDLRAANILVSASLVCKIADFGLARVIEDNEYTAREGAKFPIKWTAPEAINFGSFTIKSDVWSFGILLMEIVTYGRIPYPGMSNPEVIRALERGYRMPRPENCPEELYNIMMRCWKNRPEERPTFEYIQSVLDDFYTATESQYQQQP

[6] = molecular target: EPHB1 (UniProt P54762); test: as above
[7] = molecular target: MERTK (UniProt Q12866); test: as above
Sequence of MERTK (Q12866 whole entry, looked up): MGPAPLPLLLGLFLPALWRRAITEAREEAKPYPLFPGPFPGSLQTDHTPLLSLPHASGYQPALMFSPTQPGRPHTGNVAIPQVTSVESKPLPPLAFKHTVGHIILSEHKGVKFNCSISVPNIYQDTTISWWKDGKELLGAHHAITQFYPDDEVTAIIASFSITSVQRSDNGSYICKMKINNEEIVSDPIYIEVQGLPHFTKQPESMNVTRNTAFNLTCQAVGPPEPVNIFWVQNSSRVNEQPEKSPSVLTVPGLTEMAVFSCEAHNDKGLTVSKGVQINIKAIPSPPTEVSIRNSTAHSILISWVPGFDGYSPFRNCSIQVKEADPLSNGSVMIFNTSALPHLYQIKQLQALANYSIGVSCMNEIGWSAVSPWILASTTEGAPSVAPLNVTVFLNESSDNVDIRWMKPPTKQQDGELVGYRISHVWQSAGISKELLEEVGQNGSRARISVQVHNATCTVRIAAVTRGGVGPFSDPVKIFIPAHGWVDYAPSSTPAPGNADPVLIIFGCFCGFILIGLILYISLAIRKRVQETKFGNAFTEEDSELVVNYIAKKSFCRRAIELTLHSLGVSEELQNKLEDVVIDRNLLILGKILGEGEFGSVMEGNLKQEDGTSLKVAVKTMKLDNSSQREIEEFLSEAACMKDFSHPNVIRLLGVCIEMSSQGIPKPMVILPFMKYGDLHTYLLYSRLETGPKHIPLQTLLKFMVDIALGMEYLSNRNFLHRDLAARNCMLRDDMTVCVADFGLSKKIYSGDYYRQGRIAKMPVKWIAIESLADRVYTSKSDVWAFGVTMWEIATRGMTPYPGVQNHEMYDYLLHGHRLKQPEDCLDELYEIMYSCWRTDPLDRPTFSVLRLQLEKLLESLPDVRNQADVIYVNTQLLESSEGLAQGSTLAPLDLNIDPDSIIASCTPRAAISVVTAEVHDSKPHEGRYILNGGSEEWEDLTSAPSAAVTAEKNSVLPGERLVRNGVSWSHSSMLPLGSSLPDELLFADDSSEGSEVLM

[8] = test system: c-Src; test: as above
[9] = molecular target: FGFR1 (UniProt P11362); test: as above
Sequence of FGFR1 (P11362 whole entry, looked up): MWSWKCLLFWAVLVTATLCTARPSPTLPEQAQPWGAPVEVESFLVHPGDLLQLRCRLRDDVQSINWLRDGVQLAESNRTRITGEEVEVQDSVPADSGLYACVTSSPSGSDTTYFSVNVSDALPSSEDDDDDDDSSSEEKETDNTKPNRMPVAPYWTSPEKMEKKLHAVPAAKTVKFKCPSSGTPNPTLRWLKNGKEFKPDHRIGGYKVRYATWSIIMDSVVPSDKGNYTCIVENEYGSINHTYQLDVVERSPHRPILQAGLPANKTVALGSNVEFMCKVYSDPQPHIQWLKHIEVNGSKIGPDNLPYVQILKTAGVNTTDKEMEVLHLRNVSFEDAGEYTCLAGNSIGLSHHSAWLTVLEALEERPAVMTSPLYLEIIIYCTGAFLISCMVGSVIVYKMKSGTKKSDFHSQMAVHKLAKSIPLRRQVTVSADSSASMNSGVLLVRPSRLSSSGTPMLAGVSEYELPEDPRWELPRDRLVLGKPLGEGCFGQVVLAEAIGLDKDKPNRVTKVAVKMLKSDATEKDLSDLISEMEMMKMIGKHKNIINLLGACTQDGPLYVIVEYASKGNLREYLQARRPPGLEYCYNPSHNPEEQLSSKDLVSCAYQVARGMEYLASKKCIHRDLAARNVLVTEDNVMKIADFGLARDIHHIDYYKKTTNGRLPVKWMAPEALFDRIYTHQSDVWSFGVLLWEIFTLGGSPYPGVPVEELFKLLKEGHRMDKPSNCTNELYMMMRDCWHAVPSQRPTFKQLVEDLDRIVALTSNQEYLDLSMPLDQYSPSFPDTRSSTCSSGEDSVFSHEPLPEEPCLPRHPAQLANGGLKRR

[10] = test system: c-Abl (mouse); test: as above
[11] = molecular target: FGFR3 (UniProt P22607); test: as above
Sequence of FGFR3 (P22607 whole entry, looked up): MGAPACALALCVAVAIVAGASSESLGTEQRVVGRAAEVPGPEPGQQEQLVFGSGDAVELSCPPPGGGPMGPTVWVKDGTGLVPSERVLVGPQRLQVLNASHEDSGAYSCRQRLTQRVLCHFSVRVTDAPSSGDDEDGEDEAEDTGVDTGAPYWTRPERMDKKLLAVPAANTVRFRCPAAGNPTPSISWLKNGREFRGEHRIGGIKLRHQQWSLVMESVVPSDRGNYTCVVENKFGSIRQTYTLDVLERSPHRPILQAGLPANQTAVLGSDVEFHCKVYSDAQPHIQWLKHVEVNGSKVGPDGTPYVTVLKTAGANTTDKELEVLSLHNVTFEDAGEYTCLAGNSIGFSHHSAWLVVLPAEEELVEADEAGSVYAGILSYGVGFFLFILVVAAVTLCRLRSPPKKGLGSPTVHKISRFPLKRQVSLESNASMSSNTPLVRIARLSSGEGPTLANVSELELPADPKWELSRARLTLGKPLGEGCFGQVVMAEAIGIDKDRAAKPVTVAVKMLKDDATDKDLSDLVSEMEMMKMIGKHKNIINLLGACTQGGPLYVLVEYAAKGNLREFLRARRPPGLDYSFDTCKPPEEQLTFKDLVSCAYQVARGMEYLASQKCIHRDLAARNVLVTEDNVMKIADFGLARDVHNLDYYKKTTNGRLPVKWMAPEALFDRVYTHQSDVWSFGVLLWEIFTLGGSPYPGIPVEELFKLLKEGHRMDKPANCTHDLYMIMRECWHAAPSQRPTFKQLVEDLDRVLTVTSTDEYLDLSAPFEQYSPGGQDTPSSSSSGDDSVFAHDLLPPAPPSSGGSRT

[12] = molecular target: Jak2 (UniProt O60674); test: as above
[13] = molecular target: EPHB2 (UniProt P29323); test: as above
[14] = test system: AncSZ; test: as above
[15] = molecular target: Fyn (UniProt P06241); test: as above
Sequence of Fyn (P06241 whole entry, looked up): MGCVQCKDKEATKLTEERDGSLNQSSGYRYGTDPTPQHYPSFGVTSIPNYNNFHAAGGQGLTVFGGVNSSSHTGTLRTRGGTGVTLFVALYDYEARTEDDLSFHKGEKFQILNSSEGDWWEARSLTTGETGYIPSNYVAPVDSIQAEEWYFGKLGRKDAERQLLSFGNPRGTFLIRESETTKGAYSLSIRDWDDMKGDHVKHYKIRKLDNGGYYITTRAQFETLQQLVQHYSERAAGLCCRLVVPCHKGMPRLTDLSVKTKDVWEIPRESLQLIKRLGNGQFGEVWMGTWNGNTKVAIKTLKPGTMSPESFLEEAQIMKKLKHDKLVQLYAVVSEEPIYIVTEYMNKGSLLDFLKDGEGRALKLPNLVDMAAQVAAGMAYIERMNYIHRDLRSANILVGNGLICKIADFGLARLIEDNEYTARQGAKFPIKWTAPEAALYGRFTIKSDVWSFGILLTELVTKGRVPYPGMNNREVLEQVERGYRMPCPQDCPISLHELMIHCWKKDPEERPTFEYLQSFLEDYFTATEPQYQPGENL

[16] = test system: Fer (mouse); test: as above
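For SH2 binding enrichment of the phosphorylated peptide, bacterial display in this document: peptide library displayed on the E. coli surface as eCPX fusions, selected cells deep-sequenced, score is each peptide's frequency after selection divided by its frequency in the input.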
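For phosphorylation enrichment, bacterial display in this document: 11-residue human phosphosite peptides and single-mutation variants displayed on the E. coli surface, counted by deep sequencing, each peptide's frequency after selection divided by its frequency in the unselected input library; frequency after pTyr selection over input frequency; kinase dosed for 20-30% of maximal phosphorylation in three min.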

Sequence of Grb2 SH2 (P62993 whole entry, looked up): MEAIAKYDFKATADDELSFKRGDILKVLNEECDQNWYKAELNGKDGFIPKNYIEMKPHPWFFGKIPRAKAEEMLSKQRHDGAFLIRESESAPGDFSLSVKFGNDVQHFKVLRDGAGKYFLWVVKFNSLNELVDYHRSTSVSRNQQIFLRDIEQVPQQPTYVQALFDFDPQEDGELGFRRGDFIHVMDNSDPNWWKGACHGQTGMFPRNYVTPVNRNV

Row | Sequence | SH2 binding enrichment [1] | SH2 binding enrichment [2] | SH2 binding enrichment [3] | phosphorylation enrichment [4] | phosphorylation enrichment [5] | phosphorylation enrichment [6] | phosphorylation enrichment [7] | phosphorylation enrichment [8] | phosphorylation enrichment [9] | phosphorylation enrichment [10] | phosphorylation enrichment [11] | phosphorylation enrichment [12] | phosphorylation enrichment [13] | phosphorylation enrichment [14] | phosphorylation enrichment [15] | phosphorylation enrichment [16]
1 | VVQGIYGYHHH [UFSP2_Y285_Y290H] | 1.11 | 0.652 | 1.23 | 0.758 | 10.7 | 0.857 | 10.3 | 9.1 | 0.541 | 5.2 | 0.488 | 0.555 | 2.92 | 0.67 | 11.2 | 13.8
2 | VVTFSYKPAGN [RBL2_Y544_P547A] | 0.999 | 0.685 | 0.984 | 0.83 | 0.378 | 0.418 | 0.367 | 0.397 | 0.399 | 0.605 | 0.705 | 0.643 | 0.424 | 0.754 | 0.395 | 0.378
3 | VYAANYYKLLG [ROR2_Y645_D644N] | 0.699 | 0.506 | 0.555 | 1.11 | 1.76 | 3.1 | 5.56 | 1.18 | 7.46 | 1.23 | 5.33 | 3.19 | 2.04 | 0.779 | 1.28 | 0.469
4 | VYYDLYGGEKF [PTPN11_Y66_D61V] | 1.34 | 2.26 | 1.06 | 1.13 | 6.07 | 4.34 | 8.55 | 5.53 | 15 | 0.918 | 12.8 | 2.2 | 7.34 | 2.05 | 5.88 | 2.99
5 | WAMLAYNRSKL [WWOX_Y293] | 1.29 | 0.565 | 1.09 | 1.04 | 0.435 | 0.453 | 0.37 | 0.266 | 0.431 | 0.541 | 0.611 | 1.02 | 0.417 | 1.25 | 0.347 | 0.525
6 | WCKPPYFSCAV [MMS22L_Y28] | 1.29 | 1.34 | 1.18 | 0.908 | 0.432 | 0.506 | 0.418 | 0.459 | 0.512 | 0.656 | 0.656 | 0.845 | 0.562 | 1.06 | 0.459 | 0.474
7 | WEPFGYAVTRC [PTPRT_Y412] | 0.683 | 0.685 | 0.589 | 0.999 | 0.479 | 0.591 | 0.345 | 0.382 | 0.547 | 0.673 | 0.707 | 0.915 | 0.567 | 0.947 | 0.402 | 0.458
8 | WFISFYPQVIM [CTNS_Y143_S139F] | 0.684 | 0.444 | 0.618 | 1.53 | 0.446 | 0.541 | 0.315 | 0.359 | 0.485 | 0.758 | 0.838 | 1.13 | 0.637 | 1.22 | 0.413 | 0.451
9 | WFKKFYDANFD [MAPRE2_Y158_YF] | 1.06 | 0.512 | 0.639 | 1.28 | 0.421 | 0.501 | 0.399 | 0.368 | 0.378 | 0.537 | 0.6 | 0.85 | 0.374 | 0.998 | 0.37 | 0.373
10 | WGTPEYDSVVA [MAP1A_Y1883_A1881P] | 0.829 | 0.864 | 0.612 | 1.15 | 0.76 | 0.495 | 0.359 | 0.59 | 0.46 | 0.723 | 0.593 | 0.895 | 0.493 | 1.42 | 0.566 | 2.73
11 | WHHIFYNELRV [ACTG1_Y91_T89I] | 0.701 | 0.512 | 0.638 | 1.33 | 0.569 | 0.663 | 0.444 | 0.407 | 0.527 | 0.805 | 0.911 | 1.13 | 0.725 | 1.14 | 0.388 | 0.536
12 | WHYTFYNELRV [ACTC1_Y93_H90Y] | 0.992 | 0.572 | 0.779 | 1.42 | 0.67 | 1.31 | 0.869 | 0.619 | 0.686 | 0.979 | 1.03 | 1.27 | 0.678 | 1.39 | 0.461 | 0.651
13 | WRPFGYPCRRR [BCS1L_Y181_R183C] | 0.746 | 0.435 | 0.488 | 0.643 | 0.457 | 0.422 | 0.509 | 0.517 | 0.496 | 0.544 | 0.462 | 0.394 | 0.435 | 0.622 | 0.442 | 0.458
14 | WRVISYHVVVW [ATP13A2_Y50_G49S] | 1.08 | 0.619 | 0.994 | 1.47 | 0.544 | 0.582 | 0.434 | 0.63 | 0.554 | 1.03 | 0.826 | 1.26 | 0.61 | 1.2 | 0.453 | 0.547
15 | WVFNHYRCIIW [BRCA2_Y2624_W2626C_YF] | 0.82 | 0.588 | 0.755 | 1.67 | 0.574 | 0.885 | 0.538 | 0.497 | 0.498 | 1.04 | 0.956 | 1.41 | 0.644 | 1.28 | 0.482 | 0.589
16 | YADGVYLALEE [DUOX2_Y70_Q71L] | 0.83 | 0.869 | 0.679 | 1.31 | 1.59 | 1.82 | 1.13 | 2.97 | 1.12 | 0.899 | 1.18 | 1.39 | 1.28 | 1.66 | 2.28 | 0.531
17 | YEEDSYVERSQ [RET_Y905_K907E] | 0.726 | 1.48 | 0.75 | 1.31 | 0.498 | 0.667 | 0.504 | 0.41 | 0.558 | 0.668 | 0.961 | 1.06 | 0.722 | 1.27 | 0.519 | 0.572
18 | YENGEYIIRQG [PRKG1_Y247] | 37.5 | 9.41 | 1.22 | 1.04 | 0.589 | 0.552 | 0.386 | 0.542 | 0.432 | 0.66 | 0.611 | 0.913 | 0.555 | 1.11 | 0.453 | 0.418
19 | YGAHNYHPLPV [OAT_Y55] | 0.866 | 1.01 | 0.827 | 0.728 | 1.28 | 1.24 | 2.37 | 0.632 | 9.73 | 0.675 | 5.68 | 0.642 | 1.53 | 0.61 | 0.599 | 1.06
20 | YGPPQYNMQYS [ERBB2IP_Y977_I979M] | 0.849 | 0.434 | 0.661 | 0.577 | 0.746 | 0.472 | 0.478 | 0.499 | 0.442 | 0.481 | 0.448 | 0.496 | 0.426 | 0.794 | 0.547 | 0.499
21 | YIRRDYEACKA [BBS4_Y48_K46R] | 0.48 | 0.514 | 0.917 | 0.807 | 0.509 | 0.897 | 0.435 | 0.706 | 0.633 | 0.64 | 0.578 | 0.75 | 0.685 | 0.765 | 0.572 | 0.426
22 | YLQEIHNSNNQ [FGG_Y140_Y140H] | 0.802 | 0.578 | 0.871 | 0.63 | 0.432 | 0.427 | 0.484 | 0.414 | 0.404 | 0.445 | 0.63 | 0.563 | 0.431 | 0.618 | 0.431 | 0.349
23 | YPQARYHWLVL [APTX_Y214_K211Q] | 1.27 | 0.98 | 1.43 | 1.14 | 0.531 | 0.72 | 1.05 | 0.411 | 1.96 | 0.744 | 1.48 | 0.98 | 0.586 | 0.937 | 0.449 | 0.612
24 | YQLPYYNTVPS [BMPR1A_Y458_M460T] | 9.88 | 8.81 | 1.1 | 0.684 | 1.46 | 0.642 | 5.81 | 3.46 | 5.46 | 2.34 | 3.69 | 4.98 | 0.799 | 2 | 0.92 | 2.1
25 | YRGYSYDDIPD [TMEM230_Y112] | 1.15 | 13.6 | 0.893 | 0.964 | 0.51 | 0.483 | 0.393 | 0.463 | 0.531 | 0.762 | 0.662 | 0.973 | 0.485 | 0.973 | 0.442 | 0.439
26 | YSSLGYPPPEG [ZSWIM4_Y87] | 1.04 | 3.02 | 16.1 | 0.793 | 1.66 | 0.511 | 7.49 | 1.22 | 1.06 | 0.66 | 0.821 | 0.568 | 0.508 | 0.741 | 2.36 | 0.67

Source: the supplement of paper PMC10065799, “High-throughput profiling of sequence recognition by tyrosine kinases and SH2 domains using bacterial peptide display” (eLife, 2023)
